B4: MBP-fused PB1-ZZ of p62 (residues 1-181) wild type (domain or fragment)
chain: not shown

Assay [1] concerns the target B4. The assay is described as follows: FP; pH 8.0.
The target of assay [2] is Flag-ZZ (ZZ-domain of p62 with the flag-tag) (human). The assay is described as follows: FP; pH 6.0.
A further assay addresses T1, FEEED (Homo sapiens, not fully specified).
T1 chain: H-FEEED
The assay can be described thus: FP; pH 8.0.

Primed or numbered codes have the meaning given here. No end group written: not given here. FITC′ = fluorescein isothiocyanate label

Sequence of Flag-ZZ (ZZ-domain of p62 with the flag-tag) (human) (chain, as listed by the source): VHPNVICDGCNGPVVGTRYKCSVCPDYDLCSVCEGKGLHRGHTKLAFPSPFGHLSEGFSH

B1: FITC-labeled N-degron peptide with tryptophan at the primary position (peptide)
chain: WEEEDK
modifications: also: FITC-labeled (site not given here)
B1 came in with a Kd in assay [1] of 82 µM.

B2: R-BiP peptide (REEEDK–FITC) (peptide)
peptide: REEEDK-{FITC′}
B2: the Kd in assay [2] was over 400 µM.

B3: FITC-labeled N-degron peptide with tyrosine at the primary position (peptide)
chain: YEEEDK
modifications: also: FITC-labeled (site not given here)
B3 came in with a Kd in assay [1] of 68 µM. On to B4, for which binding with FEEED was characterised by a dissociation constant (Kd) of 169 µM.

B5: FITC-labeled N-degron peptide with lysine at the primary position (peptide)
chain: KEEEDK
modifications: also: FITC-labeled, site not given here
With B5, in assay [1], the Kd was 113 µM.

The values above are taken from publication PMC6098011 (2018).
